Source: patent US20230293738A1 (Y MABS THERAPEUTICS, published 2023)
Where “and” joins values, the source holds several entries; their conditions need not be identical. Identical values can stand only once. Like-named read-outs stand apart in the source and are kept apart here.

How the values were obtained:
[1] = target: T1, human 4Ig-B7H3 (B7H3-4Ig-His) (human, UniProt Q5ZPR3 29-466); assay: SPR, Biacore T200, 4Ig-B7H3-His on CM5 chip, 1:1 fit
T1 construct: Recombinant His-tagged protein immobilised on a CM5 chip; also called 41g-B7H3; human 4Ig-B7-H3 (dominant isoform); not shown: His tag
T1 sequence: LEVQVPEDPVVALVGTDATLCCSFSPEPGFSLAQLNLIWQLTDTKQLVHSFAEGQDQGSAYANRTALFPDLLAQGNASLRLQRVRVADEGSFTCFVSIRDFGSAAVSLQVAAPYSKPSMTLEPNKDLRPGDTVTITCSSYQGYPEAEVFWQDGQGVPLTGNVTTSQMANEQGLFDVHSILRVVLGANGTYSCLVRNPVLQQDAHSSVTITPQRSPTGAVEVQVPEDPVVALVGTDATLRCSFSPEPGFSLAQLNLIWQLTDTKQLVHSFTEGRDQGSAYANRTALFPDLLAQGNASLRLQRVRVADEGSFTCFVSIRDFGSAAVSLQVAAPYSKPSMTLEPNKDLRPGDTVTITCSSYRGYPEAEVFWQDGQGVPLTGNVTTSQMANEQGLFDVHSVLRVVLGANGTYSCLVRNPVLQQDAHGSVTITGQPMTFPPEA
Method: (§1) Both human B7H3 41g and 21g proteins were dissolved in PBS (Phosphate-Buffered Saline) to make 0.1 mg/ml stock solution and stored in −80° C. B7-H3 proteins were immobilized onto the CM5 sensor chip using Amine Coupling Kit. Both proteins were diluted to 10 ug/ml with 10 mM Sodium acetate, pH 5.0. […] A blank immobilized surface was used as a control
(§2) The data were analyzed by the 1:1 fitting model and default parameter setting for the rate constants using the Biacore T200 Evaluation Software, and the apparent association on rate constant (kon, ka), dissociation off rate constant (koff, kd) and equilibrium dissociation constant (KD=kd/ka) were calculated.

[2] = target: T2, human 2Ig-B7H3 (B7H3-2Ig-His) (human, UniProt Q5ZPR3 29-466); assay: SPR, Biacore T200, 2Ig-B7H3-His on CM5 chip, 1:1 fit; unconjugated 8H9, lot P76501A, Table 5 run
T2 construct: Recombinant His-tagged protein immobilised on a CM5 chip; also called 21g-B7H3; B7H3-21g-His; not shown: His tag
T2 sequence: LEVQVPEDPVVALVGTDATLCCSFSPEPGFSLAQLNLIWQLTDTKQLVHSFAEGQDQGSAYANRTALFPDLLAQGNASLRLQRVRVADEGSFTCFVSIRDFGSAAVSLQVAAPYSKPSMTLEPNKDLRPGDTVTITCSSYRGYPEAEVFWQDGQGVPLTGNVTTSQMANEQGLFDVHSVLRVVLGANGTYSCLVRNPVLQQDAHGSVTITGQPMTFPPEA

[3] = target: recombinant human B7-H3 (Example 3) (human) (UniProt Q5ZPR3); assay: SPR, triplicate
[4] = target: T2, human 2Ig-B7H3 (B7H3-2Ig-His); assay: SPR, Biacore T200, 2Ig-B7H3-His on CM5 chip, 1:1 fit; unconjugated 8H9, lot PHB800, Table 3 run
[5] = target: T2, human 2Ig-B7H3 (B7H3-2Ig-His); assay: SPR, Biacore T200, 2Ig-B7H3-His on CM5 chip, 1:1 fit; * beyond fitting limits
Method: as §1
(§3) Binding Assays: [0143] 1. Antibodies were diluted in HBS-EP buffer (10 mM HEPES, 150 mM NaCl, 3 mM EDTA, 0.05% Surfactant P20, pH 7.4) at varying concentrations (25-50-100-200-400 nM) prior to analysis. […] 2. Samples (60 ul) were injected over the sensor surface at a flow rate of 30 ul/min over 2 min. [0145] 3. Following completion of the association phase, dissociation was monitored in HBS-EP buffer for 10 min at the same flow rate. […] 4. At the end of each cycle, the surface was regenerated using 10 mM NaOH at a flow rate of 50 ul/min over 2×15 sec.

[6] = target: T2, human 2Ig-B7H3 (B7H3-2Ig-His); assay: SPR, Biacore T200, 2Ig-B7H3-His on CM5 chip, 1:1 fit; unconjugated 8H9, lot S219, Table 3 run
[7] = target: T2, human 2Ig-B7H3 (B7H3-2Ig-His); assay: SPR, Biacore T200, 2Ig-B7H3-His on CM5 chip, 1:1 fit
Method: as §1, §3, §2

[8] = target: T1, human 4Ig-B7H3 (B7H3-4Ig-His); assay: SPR, Biacore T200, 4Ig-B7H3-His on CM5 chip, 1:1 fit; remark: listed apart in the source
Method: as §1, §3

[9] = target: T2, human 2Ig-B7H3 (B7H3-2Ig-His); assay: SPR, Biacore T200, 2Ig-B7H3-His on CM5 chip, 1:1 fit; unconjugated 8H9, lot S219, Table 5 run
Method: as §1, §3

[10] = target: T2, human 2Ig-B7H3 (B7H3-2Ig-His); assay: SPR, Biacore T200, 2Ig-B7H3-His on CM5 chip, 1:1 fit; * beyond fitting limits; remark: listed apart in the source
Method: as §1, §3, §2

[11] = target: T2, human 2Ig-B7H3 (B7H3-2Ig-His); assay: SPR, Biacore T200, 2Ig-B7H3-His on CM5 chip, 1:1 fit; * beyond fitting limits; unconjugated 8H9, lot S219, Table 3 run
[12] = target: T2, human 2Ig-B7H3 (B7H3-2Ig-His); assay: SPR, Biacore T200, 2Ig-B7H3-His on CM5 chip, 1:1 fit; remark: listed apart in the source
Method: as §1, §2

[13] = target: T2, human 2Ig-B7H3 (B7H3-2Ig-His); assay: SPR, Biacore T200, 2Ig-B7H3-His on CM5 chip, 1:1 fit; * beyond fitting limits; unconjugated 8H9, lot S219, Table 5 run

B1: 8H9 antibody comprising a light chain according to SEQ ID No.: 2 and heavy chain according to SEQ ID No.: 1 (antibody, mouse IgG1, kappa, V domains shown)
VH: QVQLQQSGAELVKPGASVKLSCKASGYTFTNYDINWVRQRPEQGLEWIGWIFPGDGSTQYNEKFKGKATLTTDTSSSTAYMQLSRLTSEDSAVYFCARQTTATWFAYWGQGTLVTVSA
VL: DIVMTQSPATLSVTPGDRVSLSCRASQSISDYLHWYQQKSHESPRLLIKYASQSISGIPSRFSGSGSGSDFTLSINSVEPEDVGVYYCQNGHSFPLTFGAGTKLELKR
notes: Unconjugated mouse IgG1 mAb; also called m8H9; murine 8H9
[1]
  Kd: 3.18 nM and 3.13 nM
  koff: 9.11e-05 s⁻¹ and 8.73e-05 s⁻¹
  kon: 28600 M⁻¹ s⁻¹ and 27900 M⁻¹ s⁻¹
  t ½: 2.11 h and 2.21 h
[2]
  Kd: < 0.186 nM
[3]
  Kd: 0.0011 nM
  koff: 1e-05 s⁻¹
  kon: 8.9e+06 M⁻¹ s⁻¹
[4]
  Kd: < 0.23 nM
[5]
  koff: 1.1e-07 s⁻¹
[6]
  Kd: < 0.244 nM
[7]
  Kd: 0.0123 nM
  kon: 43400 M⁻¹ s⁻¹ and 46200 M⁻¹ s⁻¹ and 40900 M⁻¹ s⁻¹
[8]
  Kd: 4.07 nM and 3.78 nM and 3.69 nM
  koff: 0.000102 s⁻¹ and 0.000101 s⁻¹ and 9.48e-05 s⁻¹
  kon: 25200 M⁻¹ s⁻¹ and 26700 M⁻¹ s⁻¹ and 25700 M⁻¹ s⁻¹
  t ½: 1.88 h and 1.91 h and 2.03 h
[9]
  Kd: < 0.212 nM
[10]
  koff: 2.38e-07 s⁻¹ and 5.68e-07 s⁻¹
[11]
  koff: < 1e-05 s⁻¹
[12]
  kon: 53800 M⁻¹ s⁻¹ and 47100 M⁻¹ s⁻¹
  t ½: 72.9 days and 169 days
[13]
  koff: < 1e-05 s⁻¹
